Data on 15 sequences can be found in the DeepSol protein solubility set.

The series is described as follows: soluble on expression in E. coli; label from the status in PepcDB or PDB records.
Consider “MLYQPSLLKSRLTPAPPGFSFQPQPLLNSDMDPVRNLESLGNYTVYQDSSQCFWQHQNFTSNREHNPALRKTKICDHWRRSGSCSYGDACWYAHGEDDLRKVVRIDRSNEEENERPATAEIQKSPTKRASTNVKGLTVNIPSNTAFKEQNSSMPLSPAQERWISMSIGAVPPPTSSAAEKDAISSLSKNGVEQEQEKKHEICSRDDDIDDYGFLSPNPFPYPQQSMFSAGFPSHGHHQRSSNRATQGVPSQQFGGPVNIPGQDPNRLGSGAYHIPPQHQRSRSNVRTSREVGGPPPQFQQAIWNVAGEIYQRQKDIEIGGQRVGPNDRQPTQQKNSEMDRLLSKLKMKDLNYLRFMIERGYINERDVSRQTSSDQMSNGHHFNAPMTPPYHPRLAGNEPNTSDCHYHGTGNRLSNFMPGRHRPPHQHPIHHHHQSQHQLHQHQQYLHHAAQQYRYSHQQGPQHPFAALLSPPEISESLLPPDDSFSIWLEPKPKKQSGAMTRTRGAATINESSSAASLLTKMDALRSDKYPITDEEMMMANDFVRQGDRDDKLSSSESSSPVVMSLMELLSNENLLDQVATEKPKCSMFDFDTLKIAETLKEPLQSSECSTTTSSKMTCSPMFFFVDEKTPNYDGSGSKSLFTPSSSAGQTPSFLEPCDFFAATGSCPFGDACHQSHSI”, for which the “soluble on expression in E. coli” value is given as “not soluble”. Take “MSLTITDWASTVNLNYDMSNKPVIAHVWKEQNANWLYGGWVCRSDRDENEGACDETKLPPGMLYGVTKIRLRFREQISHAETTLILDGQSGGFCLSTKISGGSVCKYLMQTCLSTFLQKSLRRYQKLAYGRLRWPWMEGHHHHHH”: the “soluble on expression in E. coli” value is reported as “not soluble”. On to “MKMIQFWFDFASTYSYPAAMQIRQLKDEYRFSLHPFLLGGIFQKQGLNDSPFNAYPVKGQYMWRDLERICQKLDLKFHRPVLFPQNGLLAARIACQYASAPWIFDFICSVYQANFVQNLDIGQPETISQILQNMQLDCNDIIMTSTTDTAKQTLKQNGMIAESLHIFGAPSFVVENELFWGQDRLQDAIDWSQR”, for which the “soluble on expression in E. coli” value is listed as “not soluble”. With “MKGQLAFDLPIRPALSREDFFISPANALALASLDGWRDWPRGKMVLVGPRGSGKTHLAHIWAAQAEARLIPAEALARADLPALAADGAVAVEDAERLGGDRAAEEALFHLHNLMLERAGALLITAAGPPRDWGLGLADLKSRMQAASVTRLEAPDDALLSAMLVKLFTDRQIAVPGMLVPWLVARMDRSCEAARALVAALDARSLAERRPISRQMAAELLGLTATDLEHHHHHH” the entry was “not soluble”. To “MMTQIIHTEKAPAAIGPYVQAVDLGNLVLTSGQIPVNPATGEVPADIVAQARQSLENVKAIIEKAGLTAADIVKTTVFVKDLNDFAAVNAEYERFFKENNHPNFPARSCVEVARLPKDVGLEIEAIAVRK” belongs “soluble”. As for “MGSDKIHHHHHHMDAMPSTTAITVSQLSRLVGLPGVPVIIDVRIDEDFDADPRLLPASIRRDFKTVSTWAPDFAGKPVVVVCQKGLKLSQGVAAWLRHEGIPAESLEGGFEAWREADGLLVSTDKLPPRDEKGRTVWVTRSRPKVDRIACPWLIRRFVDPRAVFLFVEAAEVPAVADRFQAVPFDIDNVFWSHRGERCTFDTMIEEFGLESTALDRLAAIVRAADTARLDLVPQAAGFLAASLGLSRMFRDDLEQLEAGMLLYDAFFRWCRDATEETHNWPSAGKPS”, the “soluble on expression in E. coli” value was “not soluble”.

In the case of “MGSDKIHHHHHHMMTDTHASKNTSTDRSTLDEETVPGGGHTSFILKRGQILQITDVEGGGNVGLLLFNAHQTSERLNLPDTLKGQHTAKLTAGYCLYSDMGRVLAAIVTDTCGWHDSMGGVLNAQEVHEKYGQGRYQELRNGFFRNGMDNLLVEMGKWNLNLQDLLMTINLFSKVTVDAQGQFRFHANHSQAGNYIELYAPMDTLVVLTALQHPMDPNPTYAPRPIALTWSRAEGEDVAKYCREFREENARAFHNTERGYL”, the “soluble on expression in E. coli” value is recorded as “not soluble”.

Regarding “MSLEPATAPRPDMAPELTPEEEQATKQFLEEINKWTVQYNVSPLSWNVAVKFLMARKFDVLRAVELFHCYRETRRKEGIVKLKPHEEPLRSEILSGKFTILNVRDPTGASIALFTARLHHPHKSAQHVVLQALFYLLDRAVDSFETQRNGLVFIYDMCGSNYANFELDLGKKVLNLLKGAFPARLKKVLIVGAPIWFRVPYSIISLLLKDKVRERIQILKTSEVTQHLPRECLPENLGGYVKIDLATWNFQFLPQVNGHPDPFDEIILSSLPPAEGHHHHHH”, the “soluble on expression in E. coli” value is given as “soluble”. To “MLEVDVVRISVIVPIYNVKLYIERCVRSLMEQTLENIEFIFVNDCTPDDSMDILHYVLEEYPKRREQIKIIEHETNRGISAVRNTGLKNATGQYIIYCDSDDWVEKNMYEKLLVKALETSADIVGCDFFDDYVAHSTIRKQLFPQQSEKCVKKMLRGELHCGTWNKLVIKSLYERTKIDFPEGINMWEDVSTIIPLCFHATKIDYIPEALYHYIHHNVSSYTYSVTEKSLENLVASIQLLESFFLTNQCFKTFGEDLCFMKLTVKLNLLLGSKGELQKKRNMLYSSANRYIFSYSGMSWYWKIALWVASKKMLFCFNVMSCIERIIKKWKLEHHHHHH” belongs “not soluble”; to “SFFTCGPNEAMVVSGFCRSPPVMVAGGRVFVLPCIQQIQRISLNTLTLNVKSEKVYTRHGVPISVTGIAQVKIQGQNKEMLAAACQMFLGKTEAEIAHIALETLEGHQRAIMAHMTVEEIYKDRQKFSEQVFKVASSDLVNMGISVVSYTLKDIHDDQDYLHSLGKARTAQVQKDARIGEAEAKRDAGIREAKAKQEKVSAQYLSEIEMAKAQRDYELKKAAYDIEVNTRRAQADLAYQLQVAKTKQQIEEQRVQVQVVERAQQVAVQEQEIARREKELEARVRKPAEAERYKLERLAEAEKSQLIMQAEAEAASVRMRGEAEAFAIGARARAEAEQMAKKAEAFQLYQEAAQLDMLLEKLPQVAEEISGPLTSANKITLVSSGSGTMGAAKVTGEVLDILTRLPESVERLTGVSISQVNHKPLRTA”, “not soluble”. To “MSLKDLQKYQGIIPAFYACYDDKGDICPERVKALTNYFIDKGVQGLYVNGSSGECIYQSVADRKLVLENVMSVAKGKLTVIAHVACNNTKDSVELAMHAEAIGVDAIAAIPPIYFRLPEYAIADYWNTISQAAPQTDFIIYNIPQLAGVALTSDLYRKMLQNPQVIGVKNSSMPVQDIQNFVAIGGENHIVFNGPDEQFLGGRLMGAAAGIGGTYGVMPELYLTLNQLIVDKDLEKARELQFTINDIITKLCSGHGNMYAVIKAVLEINEQLTIGSVRLPLASVTEEDKPIIKEAAEEGHHHHHH” belongs “soluble”; to “REIADNTYIVLGTMTLNDFNEYFETDLESDNVDTIAGFYLTGVGTIPSQEEKEHFEVESNGKHLELINDKVKDGRVTKLKILVSE”, “soluble”. To “MRMRLMLLGGGNALGQALIRLGAEEDIGFLAPRPPQDGWDVASLTQLLDDTRPDALINLAYYFDWFQAETVSAARLTHQERSVERLAELCQHHNITLVQPSSYRVFDGSRATAYSEKDEPVPLGLRGQALWRIEQSVRATCPQHVLVRFGWLLDDSADGVLGRFLSRAKEPGELLLADDRRGNPTPVDDAARVIISIVKQLDCEAPLWGTYHYAGHEATTPLALGQAVLTEARLLHPLAIESPTAQAHAARPDAAEEPQHAVLACKKILHTFGIKPRAWRAGLPSLLDRYYRHV” belongs “not soluble”; to “MDLVFRPERYPFLTQDLPGVGGEIRVEPEDFQVEEVPAYLPKGEGEHLYLLLEKEGRTTREVLEFLRDEVGVPEKEIGVAGLKDKRAKTRQWFSIPRKYEDALCLLENLQGVRLLAADLHTNKLRTGHLKGNRFHILIRRPKGGVAEAEAVLKRLAEKGVPNYYGPQRFGLGGLNPVRGYKLVKEGKGRGSPWLKRFLIGSLQSLLFNDWVALRMALGLYDRVVPGDWAKKHATGGEFLVEDPGEAERALRLEISATGPLFGKKYPEAQGEARAIEDEVLARYGLKREEFRARRGARRPIRVPLAEWKVEEAPEGLWLSFFLPKGSYATSLLREVMKVEALDHLEAEPAPEDAEGL”, “soluble”. On to “MGSDKIHHHHHHMILPDRKQILDRELIRRIADTTISGSGHSDGLSEYASIRKAAFAFVESAVLGDQAYSPIENAELAFIVWILAALDENIITARTIIKARDTVYYYLRLVEHYEDLEEFGSRLGIEISVFGEQIGKDHLYRIGVADFATYASRVTGSKYRLSNQIVREGYVYVDEDVMAKVLREAFVSFMFDTLDQIRYYDAIETIKSVLDDLEKIRESYRKAHNVRMIAGKGDASMFPPCMKEIIKNLESGVNVSHMGRLALASFLHKAGYSEDEIVPYFRNAPDFDENITRYQIKHISGEISGTEYTPPKCETMRSNHLCYMDDDPLCHREWMKHPLTYYEVKRRNRKIR”, for which the “soluble on expression in E. coli” value is listed as “not soluble”.
